Earlier results, collected in publication PMC5342629.
Where two headings read alike, the source gives them in different places.

What was measured:
[1] = biological target: Cdc4 (Saccharomyces cerevisiae) (UniProt P07834)
[2] = biological target: Cdc4 (Saccharomyces cerevisiae) (UniProt P07834); remark: listed apart in the source
[3] = biological target: Cdc4 (Saccharomyces cerevisiae) (UniProt P07834); remark: listed apart in the source

Chain of UniProt P07834 (P07834 whole entry): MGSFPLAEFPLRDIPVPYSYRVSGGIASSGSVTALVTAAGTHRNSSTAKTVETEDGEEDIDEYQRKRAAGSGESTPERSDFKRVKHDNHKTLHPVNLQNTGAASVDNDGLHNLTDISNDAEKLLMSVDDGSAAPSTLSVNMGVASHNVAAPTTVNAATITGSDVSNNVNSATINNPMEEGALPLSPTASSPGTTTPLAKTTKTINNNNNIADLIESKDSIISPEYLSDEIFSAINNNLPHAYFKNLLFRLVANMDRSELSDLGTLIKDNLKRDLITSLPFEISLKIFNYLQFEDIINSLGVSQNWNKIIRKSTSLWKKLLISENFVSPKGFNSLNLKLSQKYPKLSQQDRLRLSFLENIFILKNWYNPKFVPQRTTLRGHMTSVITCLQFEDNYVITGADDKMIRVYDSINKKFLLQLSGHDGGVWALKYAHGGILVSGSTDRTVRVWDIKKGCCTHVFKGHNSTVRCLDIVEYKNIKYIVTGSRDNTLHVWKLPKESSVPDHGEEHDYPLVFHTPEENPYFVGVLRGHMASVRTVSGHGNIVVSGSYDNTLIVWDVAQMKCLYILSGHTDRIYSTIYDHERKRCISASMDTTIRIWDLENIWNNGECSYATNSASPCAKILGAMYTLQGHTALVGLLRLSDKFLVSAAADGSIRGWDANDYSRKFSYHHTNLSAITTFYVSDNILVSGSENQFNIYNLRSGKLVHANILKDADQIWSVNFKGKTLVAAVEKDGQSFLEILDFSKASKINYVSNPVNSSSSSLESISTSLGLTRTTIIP

| Kd [1] [nM] | Kd [2] [nM] | Kd [3] [nM] | Substance |
| --- | --- | --- | --- |
| 2400 |  |  | Sic1 20-residue peptide (from UniProt P38634) |
|  | 1000 | > 50000 | Sic1 (from UniProt P38634) |
